Assay [1] has as its target endogenous SRC-2 of mouse E14 ES cells (mouse (endogenous in E14 ES cells), UniProt Q61026 1-1462). Put plainly: co-IP.
Assay [2] concerns the target endogenous SRC-3 of mouse E14 ES cells (mouse (endogenous in E14 ES cells), UniProt O09000 1-1398). Description: co-IP.

endogenous SRC-3 of mouse E14 ES cells, sequence (O09000 whole entry): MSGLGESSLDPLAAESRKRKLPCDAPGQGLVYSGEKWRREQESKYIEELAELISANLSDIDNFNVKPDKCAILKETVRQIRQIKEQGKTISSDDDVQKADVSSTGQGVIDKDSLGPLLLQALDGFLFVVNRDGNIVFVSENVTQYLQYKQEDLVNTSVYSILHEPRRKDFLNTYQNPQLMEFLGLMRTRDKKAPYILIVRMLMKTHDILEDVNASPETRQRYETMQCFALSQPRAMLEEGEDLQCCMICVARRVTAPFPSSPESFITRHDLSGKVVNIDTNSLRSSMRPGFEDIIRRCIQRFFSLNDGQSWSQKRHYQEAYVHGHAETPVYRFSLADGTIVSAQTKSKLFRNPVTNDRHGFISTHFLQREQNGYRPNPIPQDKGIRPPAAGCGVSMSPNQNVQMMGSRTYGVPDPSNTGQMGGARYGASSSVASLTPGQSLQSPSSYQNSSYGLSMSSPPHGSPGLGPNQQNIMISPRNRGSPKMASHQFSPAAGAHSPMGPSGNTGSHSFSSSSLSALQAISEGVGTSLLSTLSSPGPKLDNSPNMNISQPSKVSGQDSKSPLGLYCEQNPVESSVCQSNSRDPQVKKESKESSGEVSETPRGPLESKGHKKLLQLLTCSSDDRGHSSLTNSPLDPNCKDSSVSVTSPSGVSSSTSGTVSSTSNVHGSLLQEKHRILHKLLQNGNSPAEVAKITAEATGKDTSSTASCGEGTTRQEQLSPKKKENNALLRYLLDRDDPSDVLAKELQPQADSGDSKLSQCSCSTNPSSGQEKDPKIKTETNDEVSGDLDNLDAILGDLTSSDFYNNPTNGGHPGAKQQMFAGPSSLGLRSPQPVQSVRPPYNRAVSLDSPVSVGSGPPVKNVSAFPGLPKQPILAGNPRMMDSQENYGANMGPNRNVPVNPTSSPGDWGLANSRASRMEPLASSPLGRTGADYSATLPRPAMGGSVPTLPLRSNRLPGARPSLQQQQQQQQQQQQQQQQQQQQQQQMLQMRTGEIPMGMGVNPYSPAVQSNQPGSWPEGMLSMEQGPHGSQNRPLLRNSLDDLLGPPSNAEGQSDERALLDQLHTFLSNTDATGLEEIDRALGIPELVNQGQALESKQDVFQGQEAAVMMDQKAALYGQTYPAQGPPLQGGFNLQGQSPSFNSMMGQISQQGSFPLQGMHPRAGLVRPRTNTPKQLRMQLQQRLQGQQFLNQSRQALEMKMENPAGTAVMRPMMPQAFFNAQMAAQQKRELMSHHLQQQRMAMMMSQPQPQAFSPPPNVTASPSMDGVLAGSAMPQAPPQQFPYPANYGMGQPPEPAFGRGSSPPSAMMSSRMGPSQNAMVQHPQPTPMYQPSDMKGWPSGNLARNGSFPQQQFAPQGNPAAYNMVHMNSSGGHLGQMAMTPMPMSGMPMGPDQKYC
endogenous SRC-2 of mouse E14 ES cells, sequence (Q61026 whole entry): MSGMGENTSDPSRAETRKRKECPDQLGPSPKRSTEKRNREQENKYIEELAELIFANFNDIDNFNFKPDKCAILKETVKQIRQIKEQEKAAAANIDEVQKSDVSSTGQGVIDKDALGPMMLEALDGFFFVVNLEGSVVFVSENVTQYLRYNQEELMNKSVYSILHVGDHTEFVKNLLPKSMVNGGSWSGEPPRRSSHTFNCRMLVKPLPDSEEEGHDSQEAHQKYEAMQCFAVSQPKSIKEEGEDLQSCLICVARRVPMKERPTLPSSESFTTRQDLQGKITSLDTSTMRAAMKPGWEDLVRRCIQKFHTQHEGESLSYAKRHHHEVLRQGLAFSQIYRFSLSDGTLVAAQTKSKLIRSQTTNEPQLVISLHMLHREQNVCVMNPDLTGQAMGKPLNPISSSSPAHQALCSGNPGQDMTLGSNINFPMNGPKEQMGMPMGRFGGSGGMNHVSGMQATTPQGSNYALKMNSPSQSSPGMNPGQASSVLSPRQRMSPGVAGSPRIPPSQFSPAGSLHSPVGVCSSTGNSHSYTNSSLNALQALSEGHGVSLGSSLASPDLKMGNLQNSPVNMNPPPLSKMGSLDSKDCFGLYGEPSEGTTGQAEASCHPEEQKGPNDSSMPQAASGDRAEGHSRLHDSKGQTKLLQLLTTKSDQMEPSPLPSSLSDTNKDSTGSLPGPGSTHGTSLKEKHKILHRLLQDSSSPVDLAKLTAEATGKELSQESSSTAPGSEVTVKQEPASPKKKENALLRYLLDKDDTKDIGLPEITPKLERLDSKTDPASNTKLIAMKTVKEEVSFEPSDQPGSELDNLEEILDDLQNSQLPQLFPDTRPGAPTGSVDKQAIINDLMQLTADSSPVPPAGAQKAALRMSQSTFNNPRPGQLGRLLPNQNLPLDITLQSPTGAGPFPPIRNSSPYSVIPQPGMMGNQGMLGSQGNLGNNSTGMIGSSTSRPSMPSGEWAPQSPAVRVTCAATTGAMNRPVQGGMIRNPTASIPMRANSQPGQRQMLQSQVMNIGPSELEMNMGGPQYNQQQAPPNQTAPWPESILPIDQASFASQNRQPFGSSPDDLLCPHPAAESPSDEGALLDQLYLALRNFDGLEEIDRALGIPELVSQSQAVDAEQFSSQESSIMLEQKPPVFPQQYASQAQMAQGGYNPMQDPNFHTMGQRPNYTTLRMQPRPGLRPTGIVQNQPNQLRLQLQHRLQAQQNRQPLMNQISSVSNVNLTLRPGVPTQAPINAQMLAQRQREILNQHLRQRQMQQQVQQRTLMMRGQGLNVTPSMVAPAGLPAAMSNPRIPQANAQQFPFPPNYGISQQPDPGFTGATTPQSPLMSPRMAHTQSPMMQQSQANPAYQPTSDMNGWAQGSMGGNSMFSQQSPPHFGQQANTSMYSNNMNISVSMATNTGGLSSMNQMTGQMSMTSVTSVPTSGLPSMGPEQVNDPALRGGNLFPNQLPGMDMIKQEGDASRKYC

B1: endogenous Sox2 of mouse E14 ES cells (natural protein)
chain: not shown
Consider B1, for which the results for the “fold change of co-precipitated Sox2, TSA plus NAM against untreated cells” value in assay [1] and in assay [2] were 4.08 fold and 7.53 fold, respectively.
